US20180282808A1 (ADAPTIVE BIOTECHNOLOGIES, published 2018)

Columns and labels:
[1] = target: WT1 peptide (…; SEQ ID NO: 97) presented on peptide-pulsed T2 cells (UniProt P61769 21-119, limits assumed); assay: cell-based or functional assay
[2] = target: WT1 peptide (…; SEQ ID NO: 97) presented on peptide-pulsed T2 cells (UniProt P61769); assay: cell-based or functional assay; conditions: scale: nM
[3] = target: T1, WT1 (Wilms' tumor antigen-1) peptide on HLA-A*02:01 (human); assay: full-length, on cells
T1 peptide: YMLDLQPETT

B1: eJH30_WT1C_5 (TCR, V domains shown)
V domain 1: GENVEQHPSTLSVQEGDSAVIKCTYSDSASNYFPWYKQELGKGPQLIIDIRSNVGEKKDQRIAVTLNKTAKHFSLHITETQPEDSAVYFCAAGGRDDKIIFGKGTRLHILP
V domain 2: EPEVTQTPSHQVTQMGQEVILRCVPISNHLYFYWYRQILGQKVEFLVSFYNNEISEKSEIFDDQFSVERPDGSNFTLKIRSTKLEDSAMYFCASSERLGTMAYNSPLHFGNGTRLTVTE
EC50 (nM) of functional avidity: CD69 MFI of TCR+ JRT3 cells against WT1-pep concentration pulsed on T2 cells [1]: 51.9 nM

B2: eJH30_WT1C_8 (TCR, V domains shown)
V domain 1: GQQLNQSPQSMFIQEGEDVSMNCTSSSIFNTWLWYKQEPGEGPVLLIALYKAGELTSNGRLTAQFGITRKDSFLNISASIPSDVGIYFCAGRGSQGNLIFGKGTKLSVKP
V domain 2: DTAVSQTPKYLVTQMGNDKSIKCEQNLGHDTMYWYKQDSKKFLKIMFSYNNKELIINETVPNRFSPKSPDKAHLNLHINSLELGDSAVYFCASSHWQETQYFGPGTRLLVLE
EC50 (nM) of functional avidity: CD69 MFI of TCR+ JRT3 cells against WT1-pep concentration pulsed on T2 cells [1]: 10.9 nM

B3: eJH64_WT1C_6 (TCR, V domains shown)
Valpha: AQSVAQPEDQVNVAEGNPLTVKCTYSVSGNPYLFWYVQYPNRGLQFLLKYITGDNLVKGSYGFEAEFNKSQTSFHLKKPSALVSDSALYFCAVRDMRYGGATNKLIFGTGTLLAVQP
Vbeta: ETGVTQTPRHLVMGMTNKKSLKCEQHLGHNAMYWYKQSAKKPLELMFVYSLEERVENNSVPSRFSPECPNSSHLFLHLHTLQPEDSALYLCASSQDGLAGAASFNNEQFFGPGTRLTVL
EC50 of functional avidity: CD69 MFI of TCR+ cells against WT1 10mer peptide concentration pulsed on T2 cells [2]: 0.7
EC50 of peptide [3]: 0.7 nM
